Measured values reported in patent publication US20240325555A1 (LANOVA MEDICINES, published 2024).
Read-outs that look alike come from different tables or passages of the source.

T1: human LIV-1 (human, UniProt Q13433 29-755)
T1 construct: whole, on cells; also called H-LIV1
T1 sequence (looked up): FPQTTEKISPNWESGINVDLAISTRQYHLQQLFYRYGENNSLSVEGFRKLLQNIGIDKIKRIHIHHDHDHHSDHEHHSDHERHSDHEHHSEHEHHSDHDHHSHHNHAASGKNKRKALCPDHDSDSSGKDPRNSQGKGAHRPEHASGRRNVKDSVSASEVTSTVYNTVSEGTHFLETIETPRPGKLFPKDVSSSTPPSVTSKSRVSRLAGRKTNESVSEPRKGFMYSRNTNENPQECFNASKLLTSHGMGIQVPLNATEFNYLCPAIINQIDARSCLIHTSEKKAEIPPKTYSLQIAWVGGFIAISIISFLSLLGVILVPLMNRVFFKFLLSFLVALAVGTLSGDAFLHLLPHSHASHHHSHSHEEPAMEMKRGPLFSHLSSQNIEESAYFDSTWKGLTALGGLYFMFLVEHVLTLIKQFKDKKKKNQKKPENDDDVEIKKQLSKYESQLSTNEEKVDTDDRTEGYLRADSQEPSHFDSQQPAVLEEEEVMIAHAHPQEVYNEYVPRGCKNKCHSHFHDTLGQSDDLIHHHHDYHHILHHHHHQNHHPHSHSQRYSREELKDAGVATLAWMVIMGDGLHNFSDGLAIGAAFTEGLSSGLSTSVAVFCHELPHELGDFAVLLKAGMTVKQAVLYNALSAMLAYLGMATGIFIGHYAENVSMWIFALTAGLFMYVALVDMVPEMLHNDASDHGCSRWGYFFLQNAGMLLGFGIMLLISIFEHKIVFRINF

T2: mouse LIV-1 (mouse, UniProt Q8C145 21-765)
T2 construct: whole, on cells
T2 sequence (looked up): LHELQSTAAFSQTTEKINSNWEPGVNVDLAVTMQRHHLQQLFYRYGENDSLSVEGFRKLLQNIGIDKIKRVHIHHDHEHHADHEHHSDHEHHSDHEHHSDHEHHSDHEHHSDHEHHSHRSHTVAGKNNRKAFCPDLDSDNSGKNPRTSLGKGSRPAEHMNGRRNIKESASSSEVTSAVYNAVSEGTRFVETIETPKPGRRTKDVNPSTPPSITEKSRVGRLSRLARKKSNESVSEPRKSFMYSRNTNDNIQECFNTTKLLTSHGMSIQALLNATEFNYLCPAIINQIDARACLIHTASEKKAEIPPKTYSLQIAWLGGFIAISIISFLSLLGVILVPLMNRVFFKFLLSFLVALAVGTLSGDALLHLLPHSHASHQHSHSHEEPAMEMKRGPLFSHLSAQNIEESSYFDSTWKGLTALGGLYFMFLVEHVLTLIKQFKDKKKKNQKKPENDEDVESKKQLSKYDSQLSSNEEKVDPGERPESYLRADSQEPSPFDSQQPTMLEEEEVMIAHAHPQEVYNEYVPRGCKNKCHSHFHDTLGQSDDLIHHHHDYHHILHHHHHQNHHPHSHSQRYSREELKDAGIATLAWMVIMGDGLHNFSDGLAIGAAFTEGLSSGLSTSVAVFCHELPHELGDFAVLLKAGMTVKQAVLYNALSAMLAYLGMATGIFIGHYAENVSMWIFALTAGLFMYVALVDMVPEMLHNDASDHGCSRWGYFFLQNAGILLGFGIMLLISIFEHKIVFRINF

T3: rat LIV-1 (rat, UniProt Q4V887 21-741)
T3 construct: whole, on cells
T3 sequence (looked up): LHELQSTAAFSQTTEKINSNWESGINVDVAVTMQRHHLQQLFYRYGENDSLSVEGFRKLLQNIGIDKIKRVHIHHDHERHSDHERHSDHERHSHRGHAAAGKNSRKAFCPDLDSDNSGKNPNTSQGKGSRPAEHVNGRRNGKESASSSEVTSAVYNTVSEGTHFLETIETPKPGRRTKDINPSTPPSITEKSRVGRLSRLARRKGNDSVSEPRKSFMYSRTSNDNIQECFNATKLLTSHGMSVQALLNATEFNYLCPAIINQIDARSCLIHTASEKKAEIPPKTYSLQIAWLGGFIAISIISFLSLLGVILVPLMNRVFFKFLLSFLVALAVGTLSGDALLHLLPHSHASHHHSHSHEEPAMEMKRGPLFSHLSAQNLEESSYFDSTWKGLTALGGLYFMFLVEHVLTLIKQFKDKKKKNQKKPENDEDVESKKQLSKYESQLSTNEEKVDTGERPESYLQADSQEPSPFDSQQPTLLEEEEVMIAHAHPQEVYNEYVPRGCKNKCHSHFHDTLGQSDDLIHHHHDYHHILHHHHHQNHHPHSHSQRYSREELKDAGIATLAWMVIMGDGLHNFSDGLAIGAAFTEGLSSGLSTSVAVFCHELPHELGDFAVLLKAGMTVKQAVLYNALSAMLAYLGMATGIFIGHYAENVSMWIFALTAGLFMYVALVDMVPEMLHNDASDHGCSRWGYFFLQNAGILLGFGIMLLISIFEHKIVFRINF


Key:
[1] = target: T1, human LIV-1; assay: FACS, BT20/H_LIV-1 Low cells
Experimental: (§1) Cell based binding of ADC and naked of ADC on human LIV-1 expressing cells were assessed using flow cytometry. Briefly, HEK293/H_LIV-1, both low- and high-expressing H-LIV1-positive cell lines were incubated with ADC and naked of ADC (from 100 nM, 6 folds dilution, 8 points), respectively. After incubation at 4° C. for 60 minutes, the cells were washed with FACS buffer twice, then stained with fluorescent conjugated secondary antibody at 4° C. for 30 minutes. After that the cells were washed twice and analyzed by flow cytometry.

[2] = target: T1, human LIV-1; assay: FACS, human LIV-1 cells
Experimental: In this example, cell based binding of humanized antibodies (hu Abs) on human LIV-1-expressing cells were assessed using flow cytometry.
as §1, with “hu-Abs” for “ADC and naked of ADC”, “the HEK293/H_LIV-1 cells” for “HEK293/H_LIV-1, both low- and high-expressing H-LIV1-positive cell lines”, “points).” for “points), respectively.”

[3] = target: T1, human LIV-1; assay: FACS, BT20/H_LIV-1 High cells
Experimental: as §1

[4] = target: T4, cynomolgus LIV-1 (cynomolgus, UniProt A0A2K5WH46 30-741); assay: FACS, cyno LIV-1 cells
Target sequence in this assay (A0A2K5WH46 entry or part of it): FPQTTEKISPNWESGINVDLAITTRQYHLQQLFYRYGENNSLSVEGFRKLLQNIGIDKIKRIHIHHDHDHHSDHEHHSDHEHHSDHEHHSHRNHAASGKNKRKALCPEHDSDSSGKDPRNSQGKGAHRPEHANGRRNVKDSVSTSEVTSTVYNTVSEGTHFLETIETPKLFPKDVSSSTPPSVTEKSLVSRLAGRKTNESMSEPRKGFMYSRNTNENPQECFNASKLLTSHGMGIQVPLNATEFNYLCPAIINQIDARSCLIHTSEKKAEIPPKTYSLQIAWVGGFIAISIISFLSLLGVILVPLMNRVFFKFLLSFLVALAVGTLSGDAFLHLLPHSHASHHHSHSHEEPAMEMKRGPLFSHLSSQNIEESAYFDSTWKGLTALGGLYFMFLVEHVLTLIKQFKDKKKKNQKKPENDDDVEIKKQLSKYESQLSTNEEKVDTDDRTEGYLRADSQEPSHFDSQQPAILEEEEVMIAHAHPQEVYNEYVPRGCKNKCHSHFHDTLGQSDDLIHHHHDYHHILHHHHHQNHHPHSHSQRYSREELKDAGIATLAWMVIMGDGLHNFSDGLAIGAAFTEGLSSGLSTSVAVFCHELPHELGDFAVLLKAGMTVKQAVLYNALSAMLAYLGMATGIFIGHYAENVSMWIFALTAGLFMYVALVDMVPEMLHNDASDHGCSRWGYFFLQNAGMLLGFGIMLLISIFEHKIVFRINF

[5] = target: T1, human LIV-1; assay: cell-based or functional assay
[6] = target: T1, human LIV-1; assay: FACS, HEK293/H_LIV-1 cells
Experimental: as §1

[7] = target: T1, human LIV-1; assay: cell-based or functional assay; remark: listed apart in the source
[8] = target: T2, mouse LIV-1; assay: FACS, HEK293/Mouse_LIV-1 cells
Experimental: (§2) Humanized antibodies 5D6B10.z7, 124H4D11.p2.z4 and 290F10G10.p1.z2 were selected for further testing. In this example, FACS cross binding of these selected antibodies to LIV-1 of different species were assessed using flow cytometry.
(§3) Cell based binding of optimal leads to different species LIV-1 expressing cells were assessed using flow cytometry. Briefly, the cells were incubated with optimal leads (from 100 nM, 6 folds dilution, 8 points). After incubation at 4° C. for 60 minutes, the cells were washed with 2% FBS/PBS buffer twice, then stained with fluorescent conjugated secondary antibody at 4° C. for 30 minutes. After that the cells were washed twice and resuspended in 80 μL of 2% FBS/PBS buffer. Fluorescent signal of binding was detected using Agilent. The EC50 was calculated using the GraphPad Software (LaJolla, CA).

[9] = target: T4, cynomolgus LIV-1; assay: FACS, HEK293/Cyno_LIV-1 cells
In short: (§4)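 HEK293 cells over-expressing human or cyno LIV-1 incubated with chimeric Abs (from 100 nM, 5-fold dilutions, 8 points) for 60 min at 4 °C, then fluorescent secondary antibody 30 min at 4 °C; washes in 2% FBS/PBS. Binding read by flow cytometry; EC50 from the titration curve.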

[10] = target: T1, human LIV-1; assay: FACS, HEK293/H_LIV-1 cells; remark: listed apart in the source
In short: as §4

[11] = target: T4, cynomolgus LIV-1; assay: FACS, HEK293/Cyno_LIV-1 cells; remark: listed apart in the source
Experimental: as §3
Target sequence in this assay (A0A2K5WH46 entry or part of it): as above

[12] = target: rhesus LIV-1 (rhesus, UniProt H9FSJ2 30-735); assay: FACS, HEK293/Rhe_LIV-1 cells
Experimental: as §2, §3

[13] = target: T1, human LIV-1; assay: cell-based or functional assay; remark: listed apart in the source
[14] = target: T1, human LIV-1; assay: cell-based or functional assay; remark: listed apart in the source
[15] = target: T3, rat LIV-1; assay: FACS, HEK293/Rat_LIV-1 cells
Experimental: as §2, §3

[16] = target: T4, cynomolgus LIV-1; assay: FACS, HEK293/Cyno_LIV-1 cells; remark: listed apart in the source
Target sequence in this assay (A0A2K5WH46 entry or part of it): as above

[17] = target: T1, human LIV-1; assay: FACS, HEK293/H_LIV-1 cells; remark: listed apart in the source
In short: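 HEK293 cells expressing human LIV-1 incubated with humanized antibodies (from 100 nM, 6-fold dilutions, 8 points) at 4 °C for 60 min. Bound antibody detected with a fluorescent secondary antibody (4 °C, 30 min) by flow cytometry.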

Sequence of rhesus LIV-1 (H9FSJ2 entry or part of it): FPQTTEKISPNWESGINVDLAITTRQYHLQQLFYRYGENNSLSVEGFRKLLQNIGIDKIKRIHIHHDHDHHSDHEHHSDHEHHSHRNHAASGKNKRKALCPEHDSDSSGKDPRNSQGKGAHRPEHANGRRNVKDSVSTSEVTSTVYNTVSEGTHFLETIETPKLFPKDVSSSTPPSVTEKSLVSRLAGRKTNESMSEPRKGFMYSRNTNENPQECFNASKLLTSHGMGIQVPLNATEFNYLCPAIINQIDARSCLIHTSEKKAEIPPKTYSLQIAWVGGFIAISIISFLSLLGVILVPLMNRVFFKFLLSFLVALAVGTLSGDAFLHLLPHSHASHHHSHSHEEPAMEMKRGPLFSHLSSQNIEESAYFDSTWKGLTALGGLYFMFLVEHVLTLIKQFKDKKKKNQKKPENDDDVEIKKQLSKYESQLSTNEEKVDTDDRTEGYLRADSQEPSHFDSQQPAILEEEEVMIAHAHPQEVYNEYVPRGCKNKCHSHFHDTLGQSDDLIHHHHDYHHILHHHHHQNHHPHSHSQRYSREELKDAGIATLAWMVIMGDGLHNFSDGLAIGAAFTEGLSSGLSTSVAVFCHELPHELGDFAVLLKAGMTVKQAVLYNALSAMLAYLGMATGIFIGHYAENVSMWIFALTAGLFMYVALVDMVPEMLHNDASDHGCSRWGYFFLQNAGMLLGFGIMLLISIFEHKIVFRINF

Binder	EC50 [1] [nM]	Top (MFI) [1] [MFI]	EC50 [3] [nM]	Top (MFI) [3] [MFI]	Internalization EC50 [5] [nM]	Internalization Top (MFI) [5] [MFI]	EC50 [6] [nM]	Top (MFI) [6] [MFI]	Top (MFI) [8] [MFI]	EC50 [11] [nM]	Top (MFI) [11] [MFI]	EC50 [12] [nM]	Top (MFI) [12] [MFI]	Top (MFI) [15] [MFI]	other results
290F10G10.p1.Z2 (antibody, V domains shown, also called 290F10G10.z2; LM-001) VH: EVQLVQSGAEVKKPGASVKVSCKASGYTFTSYWIHWVRQAPGQGLEWMGTIYPGDADTRSTQKFKDRVTMTADTSTSTVYMELSSLRSEDTAVYYCARSLIHDDYDKYYFDYWGQGTTVTVSS VL: DIQMTQSPSSLSASVGDRVTITCKARQDINKYIAWYQQKPGKAPKLLIHYTSILQPGIPSRFSGSGSGRDYTFTISSLQPEDIATYYCLQYDYFFTFGGGTKVEIK	1.43	3400	1.06	18800	5	112000	0.7	17800	–	–	–	–	–	–	EC50 [2]: 0.24 nM; Top (MFI) [2]: 7660 MFI; EC50 [4]: 0.38 nM; Top (MFI) [4]: 7470 MFI
290F10G10 (antibody, V domains shown, Tested as chimeric antibody) VH: IQLQQSGAELARPGASVKLSCKASGYTFTSYWIHWVKERPGQGLEWIGTIYPGDGDTRSTQKFKDKATVTAEKSSSTVYMQLSSLASEDSAVYYCTRSLIHDDYDKYYFDYWGQGTTLTVSS VL: DIQMTQSPSSLSASLGGKVTITCKARQDINKYIAWYQHKPGKGPRLLIHYTSILQPGIPSRFSGSGSGRDYSFSISNLEPEDIATYYCLQYDYFFTFGSGTKLEIK	–	–	–	–	–	–	–	–	5550	0.26	1560	0.22	5270	6820	Internalization EC50 [7]: 3.5 nM; Internalization Top (RFU) [7]: 298000 RFU; EC50 [8]: 51.1 nM; EC50 [9]: 0.53 nM; Top (MFI) [9]: 2940 MFI; EC50 [10]: 0.38 nM; Top (MFI) [10]: 9570 MFI; Cell viability(%) [13]: 3.46%; Cytotoxicity IC50 [13]: 1.33 nM; ADCC reporter EC50 [14]: 0.4 nM; ADCC reporter Top (RFU) [14]: 177000 RFU; EC50 [15]: 72.2 nM
124H4D11.p2.z4 (antibody, V domains shown) VH: QVQLVQSGAEVVKPGASVKVSCKASGFNIKDYYMHWVRQAPGQGLEWIGWIDPENDDTEYDPKFQGRVTMTADTSTSTVYMELSSLRSEDTAVYYCAARYYAFDYWGQGTMVTVSS VL: DVLMTQSPLSLPVTLGQPASISCRSSQSIVHSNANTYLEWYLQRPGQSPRLLIYKVSNRFSGVPDRFSGSGSGTDFTLKISRVEAEDVGVYYCFQGSQVPPTFGQGTKLEIK	0.17	3460	0.15	20800	5.6	139000	0.16	19900	107	0.09	1420	0.07	5420	106	binding result [8]: no binding (tested: 100 nM); EC50 [16]: 0.13 nM; Top (MFI) [16]: 8840 MFI; EC50 [17]: 0.13 nM; Top (MFI) [17]: 16900 MFI; binding result [15]: no binding (tested: 100 nM)
